Results on one substance are retold here after article PMC7863765.

Assay [1] deals with polyphosphorylated full-length SARS-CoV-2 nucleocapsid protein pN.1-419 (SARS-CoV-2) (UniProt P0DTC9). Description: SEC. On the technique in general: Size exclusion chromatography separates by hydrodynamic size, large species first.
The target is the same in assay [2]. The assay can be described thus: SEC-MALS.

Usually Kd stands for the concentration at which binding is half-saturated. In assay [1], “untagged full-length human 14-3-3γ (from UniProt P61981 1-247) (natural protein)” had a Kd of 1500 nM and a stoichiometry N (14-3-3γ chains per pN.1-419 chain (2:2)) of 1. In assay [2], the stoichiometry N (14-3-3γ chains per pN.1-419 chain (2:2)) was 1.
